The record followed here is PMC3870192.

Common to all, as to assay: purified protein
What all share (type): biochemical, Plenodomus lingam
What all share (settings): 1 mM [1-14C]DMAPP, 100 mM Tris-HCl pH 8.0, 2% glycerol, 30 °C

The subject of series [1] is COc1cccc2[nH]cc(C[C@H](N)C(=O)O)c12.
Series [2] relates to Cc1cccc2c(C[C@H](N)C(=O)O)c[nH]c12.
For series [3], the system named is N[C@@H](Cc1c[nH]c2ccccc12)C(=O)O.

By Km is commonly meant the substrate concentration at which the rate is half of its maximum. A word on the kcat/Km: it is the turnover number divided by the Michaelis constant. By kcat is commonly meant the number of substrate molecules converted per active site and unit of time at saturation.

On to “SirD (tyrosine O-prenyltransferase; dimethylallyltyrosine synthase) (Plenodomus lingam)”, for which, in series [1], the Km amounted to 5100 ± 2000 µM and the kcat/Km worked out at 2.5 M⁻¹ s⁻¹. In addition, in series [2], the Km was determined as 2000 ± 400 µM and the kcat/Km is 6.5 M⁻¹ s⁻¹. Besides, in series [3], the Km worked out at 370 ± 60 µM, the kcat was found to be 0.095 ± 0.002 s⁻¹ and the kcat/Km turned out to be 260 M⁻¹ s⁻¹.
